From patent publication US8288112B2, “Protein, an antibody and measurement of the protein” (P&M Venge AB, priority 2006, dated 2012)

Assays:
[1] = Enzyme assay: free fatty acid release from phospholipid substrates (NEFA-C kit); type: biochemical; details: for activity increase by pre-incubation with released materials from PMA-induced neutrophils: partly activated protein 0.5 μg stored for 19 weeks
Procedure: Enzyme assay. The reaction mixture (40 μl final volume) contained 10 mM substrates, 100 mM phosphate buffer containing 3 mM of sodium azide (NaN3) and 0.5% Triton X-100, pH 7.4, and 0.5 μg of enzyme or as indicated. Since the formation of the product (fatty acid) was linear with time for at least 24 h under the standard conditions, the reaction mixture was incubated for 18-20 h and the reaction was stopped by cooling on ice. Free fatty acid (FFA) was determined by means of the NEFA-C kit (WAKO chemicals, Neuss, Germany) according to the instructions of the manufacturer.
Experiment A: Didecanoyl-PC was incubated with the purified protein at different time of storage and free fatty acid release was measured. Enzymatic reactions were carried out with 0.5 μg of the purified protein for 20 h at 37° C.
Experiment B: Free fatty acid release from phospholipids, didecanoyl-PC (Dideca-PC), dipalmitoyl-PC (Dipalmi-PC), phosphatidylinositol (PI), phosphatidylethanolamine (PE) and lysophosphatidylcholine (Lyso-PC) was measured. Enzymatic reactions were carried out with 0.5 μg of the purified protein (stored at 4° C. for 15 w) for 18-20 h at 37° C.
Experiment C: The purified protein (stored at 4° C. for 16 w) was preincubated at room temperature or 37° C. for 15 min with released materials (0.5 μg) induced from neutrophils by PMA before incubation with Didecanoyl-PC. Enzymatic reactions were carried out with 0.5 μg of the protein for 20 h at 37° C. and free fatty acid release was measured.
Analyses of the pH optimum, Km and Vmax. The purified protein (0.5 μg) was added to tubes containing Didecanoyl-PC at varying pH (4.0-9.0). The Km and Vmax were calculated from Hanes plots of s/vi on Didecanoyl-PC concentration (s).

[2] = Positional specificity (sn-2) assay with radiolabeled phosphatidylcholine; type: biochemical; details: 1-palmitoyl-2-[1-14C]palmitoyl-PC, 20 h at 37° C.
Procedure: Positional specificity of the purified enzyme was determined using 1-palmitoyl-2-hydroxyl-phosphatidylcholine (1-palmitoyl-2-hydroxyl-PC) and 1-palmitoyl-2-[1-^14C]palmitoyl-phosphatidylcholine (1-palmitoyl-2-[1-^14C]palmitoyl-PC) as substrates. The hydrolyzing activity of the enzyme at the position of sn-1 acyl ester bonds of glycerophospholipids was determined as described above using 1-palmitoyl-2-hydroxyl-PC as substrate. […] Radiolabeled fatty acids were quantified by scintillation counting.
Experiment D: Detection of phopholipase A2 activity. Radioactive phospholipid, 1-palmitoyl-2-[1-^14C]palmitoyl-PC was incubated without (Control) or with 1 μg of the purified protein (stored at 4° C. 16 w) for 20 h at 37° C. and radioactivity was counted as described in the materials and methods section.

B1: HPLB-II: Novel phospholipase B from human neutrophil granules; about 130 kDa oligomer of 25 and 45 kDa fragments of hypothetical protein FLJ22662 (protein)
chain 1: MPAEKTVQVKNVMDKNGDAYGFYNNSVKTTGWGILEIRAGYGSQTLSNEIIMFVAGFLEGYLTAPHMNDHYTNLYPQLITKPSIMDKVQDFMEKQDKWTRKNIKEYKTDSFWRHTGYVMAQIDGLYVGAK
chain 2: VLPGFENILFAHSSWYTYAAMLRIYKHWDFNIIDKDTSSSRLSFSSYPGFLESLDDFYILSSGLILLQTTNSVFNKTLLKQVIPETLLSWQRVRVANMMADSGKRWADIFSKYNSGTYNNQYMVLDLKKVKLNHSLDKGTLYIVEQIPTYVEYSEQTDVLRKGYWPSYNVPFHEKIYNWSGYPLLVQKLGLDYSYDLAPRAKIFRRDQGKVTDTASMKYIMRYNNYKKDPYSRGDPCNTICCREDLNSPNPSPGGCYDTKVADIYLASQYTSYAISGPTVQGGLPVFRWDRFNKTLHQGMAEVYNFDFITMKPILK
pH optimum ([1]; didecanoyl-PC as substrate, incubated at 37° C.): 7.4
Vmax ([1]; didecanoyl-PC substrate, Hanes plots, protein stored for 15 weeks): 21.4 nM/min/mg
deacylation activity ([1]; freshly purified protein, didecanoyl-PC, dipalmitoyl-PC, PI, PE, Lyso-PC substrates): No activity was detected
activity increase by pre-incubation with released materials from PMA-induced neutrophils ([1]; pre-incubation 15 min at 37° C.): ~30%
activity increase by pre-incubation with released materials from PMA-induced neutrophils ([1]; pre-incubation 15 min at room temperature): about 10%
deacylation activity on didecanoyl-PC ([1]; purified protein stored at 4° C. for some period of time): removed fatty acid from didecanoyl-PC
deacylation activity on Lyso-PC ([1]; stored purified protein): showed deacylation activity
deacylation activity on PE ([1]; stored purified protein): showed deacylation activity
deacylation activity on PI ([1]; stored purified protein): showed deacylation activity
removal of fatty acid from the sn-2 position [2]: removed fatty acid from the sn-2 position
